The values that follow come from US20200115452A1 (Dana-Farber, published 2020).

Where no end group is shown, it is not given here.

Assay [1] addresses T1, unphosphorylated peptide (unphosphorylated form of the PD-1 p248Tyr peptide) (human, not fully specified).
T1 peptide: VPEQTEYATIVF
The assay is described as follows: ELISA, hybridoma screen. (In an ELISA, binding on a coated surface is turned into a signal by an enzyme label.)
Source text: (§1) Hybridoma wells were screened by western blot on pervanadate treated Jurkat-hPD-1 lysates and by ELISA on PD-1 p248Tyr peptide conjugated to BSA and lack of reactivity to unphosphorylated peptide or BSA.

Another assay concerns the target T2, BSA (UniProt P02769 25-607).
T2 construct: Carrier control in the hybridoma ELISA screen; also called carrier
Kind of assay: ELISA, hybridoma screen.

For assay [2], the target named is T3, PD-1 pITIM peptide KEDPSAVPVFSVD(pY)GELDFQWRE (phosphotyrosine (pY) at peptide residue 14 (PD-1 ITIM tyrosine)).
T3 construct: Coated on ELISA plates at 1 µg/ml; also called negative control pITIM peptide
T3 peptide: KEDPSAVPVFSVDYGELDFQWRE
The assay is described as follows: peptide ELISA with antibody supernatants.

T2 sequence (P02769 25-607 limits assumed): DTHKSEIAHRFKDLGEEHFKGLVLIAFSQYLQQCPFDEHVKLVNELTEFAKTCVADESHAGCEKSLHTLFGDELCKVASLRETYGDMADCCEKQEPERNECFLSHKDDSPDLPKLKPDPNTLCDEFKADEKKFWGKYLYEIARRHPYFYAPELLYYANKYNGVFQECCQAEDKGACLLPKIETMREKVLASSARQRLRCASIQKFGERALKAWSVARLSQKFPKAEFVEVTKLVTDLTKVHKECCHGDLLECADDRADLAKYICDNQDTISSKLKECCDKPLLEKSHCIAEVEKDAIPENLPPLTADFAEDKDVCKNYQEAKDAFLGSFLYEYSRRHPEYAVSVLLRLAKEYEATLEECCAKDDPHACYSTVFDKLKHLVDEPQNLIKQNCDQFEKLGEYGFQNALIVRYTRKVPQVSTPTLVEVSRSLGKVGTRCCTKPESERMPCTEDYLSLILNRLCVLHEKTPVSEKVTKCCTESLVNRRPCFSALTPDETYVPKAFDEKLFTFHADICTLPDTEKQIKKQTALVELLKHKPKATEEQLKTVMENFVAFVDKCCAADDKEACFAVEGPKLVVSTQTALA
Source text for BSA: as §1

B1: anti-phosphorylated PD-1 monoclonal antibody 407.6G12 (antibody, mouse IgG2a, V domains shown)
VH: EVQLVESGGGLVQPKGSLKLSCAASGFTFNTYAMNWVRQAPGKGLEWVARIRSKSDNYATYYADSVKDRFTISRDDSQSMLYLQMNNLKTEDTAMYYCMRGITTVNVWGAGTTVTVSS
VL: DIVMTQSQKFMSTSVGDRVSVTCKASQNVGTNVAWYQQKPGQSPKALIYSASYRYSGVPDRFTGSGSGTDFTLTISNVHSEDLAEYFCQQYNFYPLTFGAGTKLELK
notes: Mouse IgG2a, kappa; A BV421-conjugated version was used for flow cytometry; also called clone 407.6G12; 307.6G12
As to B1, the binding result (in assay [1]; in the assay with BSA) was “no binding” in each case.

B2: rabbit mAb 6H2/6K2 (antibody, V domains shown)
VH: CQSVEESGGRLVTPGTPLTLTCTVSGIDLNYYAMGWVRQAPGKGLEYIGWIKSSGSAYYARWVNGRFTISKTSSTTVDLKMTSPTTEDTATYFCARDGHNIIEYYDLWGQGTLVTVSS
VL: AIKMTQTPSSAEAAVGGTITINCQASQSISSSLAWYQQKPGQPPKLLIYKASTLASGVPSRFSGSRSGTQFTLTISGVQCDDAATYYCQQGWSGDNVDNIFGGGTEVVVK
notes: Rabbit monoclonal tested as culture supernatant
With B2, the binding result in assay [2] is given as “no binding”.

B3: rabbit mAb 2H2/2K4 (antibody, V domains shown)
VH: QSLEESGGDLVKPGASLTLTCKASGFSFSGSYHMCWVRQAPGKGLEWIAHIYVGSSGGTYYASWAKGRFAISKTSSTTVTLQMTSLTAADTATYFCARRDTGGTSAYALWGQGTLVTVSS
VL: DVVMTQTPSSASEPVGGTVTIKCQASQSVSSRLAWYQQKPGQPPKLLIYKASTLASGVPSRFKGSGYGTEFTLTISDLECADAATYYCQCTYIDSTYGNNFGGGTEVVVK
notes: Rabbit monoclonal tested as culture supernatant, detected with anti-rabbit IgG Fc
As to B3, the binding result in assay [2] was “no binding”.
